Experimental data from patent US20220281942A1 (published 2022).

Molecular target: T1, CCND1 (G1/S-specific cyclin-D1) peptide on HLA-DPA1*01:03 / HLA-DPB1*04:01 (human)
T1 peptide: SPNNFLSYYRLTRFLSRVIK
Experiment: multimer staining

B1: 03-CCND1219-238 (TCR, V domains shown)
Valpha: KDQVFQPSTVASSEGAVVEIFCNHSVSNAYNFFWYLHFPGCAPRLLVKGSKPSQQGRYNMTYERFSSSLLILQVREADAAVYYCAVCTLYNFNKFYFGSGTKLNVKP
Vbeta: GVTQTPKFQVLKTGQSMTLQCAQDMNHEYMSWYRQDPGMGLRLIHYSVGAGITDQGEVPNGYNVSRSTTEDFPLRLLSAAPSQTSVYFCASLTDNNEQFFGPGTRLTVL
- binding result: recognises
